Experimental data published in the nanobody polyreactivity screen of Harvey et al. (2022).

Assay: yeast display, Sf9 membrane polyspecificity reagent, FACS + sequencing; frameworks hold sequencing errors
Method in brief: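 A synthetic nanobody library was expressed on Saccharomyces cerevisiae BJ5465 by galactose induction for 36–48 hours. The library was stained for 1 hour at 4 °C with 10% biotinylated, detergent-solubilized Sf9 membrane reagent and enriched with streptavidin microbeads before FACS. Low and high (top ~1%) gates were set on anti-HA fluorescence for expression and streptavidin fluorescence for reagent binding, and each polyreactivity label reflects the gate of origin.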

Sequence	polyreactivity (PSR sort gate)
QVQLVESGGGLVQAGGSLRLSCAASGFINSDYAMGWYRPAPGKERELVAVITWRSGSTYYADSVKGRFTISRDYAKNTVYLQMNSLKPEDTAVYYCAARNYRNYSQGRRLGYNDWGQGTQVTVTS	high polyreactivity
QVQLVESGVGLVQAGGSLRLSCAASGSILDYYVMGWYRQAPGKDRELVAAIRGGGSTYYADSVKGRFTFSRDNEKNTVYLQMNSLKPEDTAVYYCAKDSQTARDFDYSGQGTQVTVSS	low polyreactivity
QVQRVESGGGLVQAGGSLRLTCAASGRTFPGYAMGCYRQAPGKERELVAGISYRGGSTYYADSVKGRFTISRDNANNTVYLQMNSLKPEDSAVYYCALDYSRHKGDYWGQGTQVTVSS	low polyreactivity
QVQLVESGGGLVQAGGSLRLSFAASGLTLYKNGMGWYRQAPGKETELVAVISRSGGRTYYADSVQGRFTISRDNAKNTVYLQMNSLKPEDTAVYYCAARQYGPRYTYYYWGQGTQVTVSS	high polyreactivity
QVQLVESGGGLVQAGGSLRLSCAASGRIIYTNALGWYRQAPGKERELVAAINRSGGITYYADSVKGRFTISRDNAKNTVYLQMNSLKPEDTAVYYCAKDYSWASYNHDYWGQGTQVTVSS	low polyreactivity
QVQLVESGGGLLQAGGSLRLSCASSGRIFRWNAMGWYRQAPGKERELVAAISARGGSTYYADSVKGRFTISRDNAKNTVYLQMNSLKPEDTAVYYCAKVSSRGFDYWGQGTQVTVSS	high polyreactivity
QVQLVESGGGLVQAGGSLRLSCAASGSTFGSNAMGWYRQAPGKERELVAAITYSGGRTYYADSVKGRFTISRDNAKNTVYLQMNSLKPEDTAVYYCAATFGFFYYQYDYWGQGTQVTVSS	low polyreactivity
QVQLVESGGGLVQAGGSLRLSCAASGFTFGRNTMGWYRQAPGKERELVAAIDSGGNTYADSVKGRFTISRDNAKNTVYLQMNSLKPEDTAVYYCAVDVGEFSSYGYWGQGTQVTVSS	low polyreactivity
QVQLVESGGGLVQAGGSLRLSCAASGSIFNGYAMGWYRQAPGKERELVAAISWSGVGTYYADSVKGRFTISRDNAKNTVYLEMNSLKPEDTAVYYCNAVATHDWLRVDTYEYWGQGTQVTVSS	low polyreactivity
QVQLVESGGGLVQAGGSLRLSCDASGITFLNYAMGWYRQAPGKERELVAAIDTRGGRTNYADSVKGRFTISRDNAKNTVYLQMNSLKPEDTAVYYCAADPFYWYRSVRGEYWGQGTQVTVSS	low polyreactivity
QVQLVESGGGLVQAGGSLRLSCAASVSTFKPYAMGWYRQAPGKERELVSAISGSGGSTYYADSVKGRFTISRDNAKNTVYLQMNSLKPEDTAVYYCAARFYVSYYYFGYEYWGQGTQVTVSS	high polyreactivity
QVQLVESGGGLVQAGGSLRLSCAASGFTFSGYDMGWSRQAPGKERELVAGISSGGVSTTYADSVKGRFTISRDNAKNTVYLQMNSRKPEDTAVYYCNAEWTSFDWGQGTQVTVSS	low polyreactivity
QVQLVESGGGLVQAGGSLRLSCAASGSTFFANAMGWFRQAPGKAREFVAVITWGGSTYYADSVKGRFTISRDNAKNSVYLQMNSLKPEDTAVYYCNADYQPPGILYHWWRYYRGDYWGQGTQVTVSS	low polyreactivity
QVQLQESRGGLVQAGGSLCLSFAASGTIFFDGDMGGYRQAPGKEREFVAAINPGGSGYYADSVKGRLPLAAITHTVYLQMNSLKPEDTAVYYCAAKLFDVYGYYYWGQGTQVTLSS	low polyreactivity
QVQLVESGGGLVQAGGRLRLSCAASGRIFYFYDMGWYRQAPGTERELGAAISRGGSTNYADSVKGRFTISRDNAKNTVYLQMNRLKPQDTAVYYCNAGLYDLRDIAGYSDYDYWGQGTQVTVSS	low polyreactivity
QVQLVESGGGLVQAGGSLRLSCAASGLTFLRYAMGWYRQAPGKERELVATISASDGDTYYADSVKGRFTISGDNAKNTVYLQMNSLKPEDTAVYYCAADDIYKYYQYYAFPYYRYDDWGQGTEVTVSS	low polyreactivity
QVQLVESGGGLVQAGGGLRLSCAASGFTFTKYAMGLYRQAPGKERELVAAITSGTSTYYADSVKGRFTISRDNAKNTVYLQMNSLKPEDTAVYYCAAPLYGRYSYGYWGQGTQVTVSS	high polyreactivity
QVQLVESAGGLVQAGGSLRLSCAPSGRIFGRYAMGWYRHAPGKERELVAAISFNGGSTSYADSVNGRFTISRDNAKNTVYLQMNTLKTEYTAVYYCAAKYRGFNYWGQGTQVTVSS	high polyreactivity
QVQLVESGGGLVQAGGSLRLSCASSGSTFLRNAMGWYRHAPRKERELVAAFSLGSGSTYYADSVKGRFTISRDNAKNTVYLQMNSLKPEDTAVYYCAADVSRWLDYGYDYWGQGTQVTVSS	low polyreactivity
QVQLVESGGGLVQAGGSLRLSCAASGSTFRWNAMGWYRQAPGKERELVAAISSGGRTYYADSVKGRFTISRDNAKNTVYLQMNSLKPEDTAVYYCSARTSRYYYYPYAFYWGQGTQVSVSS	high polyreactivity
QVQLEESGGGLVQAGGSLRLSCAASGGILDTYAMGWYRPAPWKETELVAANTSGCNTNYADSVKGRFTISRDNAKNTVYLQMISLKQEDTEVYYCNLVTWYYVFRPWEYDYCGQGTQVTVSS	low polyreactivity
QVQLVESGGGLVQAGGSLRLSCAASGSTLVTNAMGWYRQAPGKERELVAAITFSGGTTYYADSVKGLFTISRDNAKNTVYLQMNSLKPEDTAVYYCAAEIWLEYVGYDYWGQGTQVTLSS	high polyreactivity
QVQLVESGGGLVQAGGSLRLSCASSGRTFYDNTMGWYRQAPGKERELVAGISYSGGSTYYADSVKGRFTISRDNAKNTVYLQMNSLKPEDTAVYYCNAELYFPYFDGKTRHGGYWGQGTQVTVSS	low polyreactivity
QVQLEESGGGLVQAGGSLRLSCAASGSIIWSYAMGWYRQAPGKERELVAVINWSGGSTYYADSVKGRFTISRDNAKNTVYLQMNSLKPEDTAVYYCNKDLGPTKRPFTFDYWGQGTQVTVSS	low polyreactivity
QVQLVESGGGLVQAGGSLRLSCAASGRTFYSNAMGWYRQAPGKERELVATISSSGGSTYYADSVKGRFTISRDNAKNTVYLQMNSLKPEDTAVYYCAADPSGDYWGQGTQVTVSS	low polyreactivity
QVQLVESGGGLVQAGGSLRLSCAASGFTHDWYAMGWYRQAPGKERELVAAIWSAGTTYYADSVKGRFTISRDNAMNTVYLQMNSLKPEDPAVYYCATVSDYDFGLYDYWGQGTQVTVSS	low polyreactivity
QVQLVESGGGLVQAGGSLRLSCAASGSIFRINAMGWYRQAPGKEREFVAAIRGSGGRTYYADSVKGRFTISRDNAKNTVYLQMNSLKPEDTAVYYCAADFSYRYFQRTSWPFDYWGQGTQVTVSS	high polyreactivity
QVQLVESGGGLVQAGGSLRLSCAASGSTFYVNAMGWYRQAPGKERELVAAIRYSGGRTYYADSVKGRFTISRDNAKNTVYLQMNSLKPEDTAVYYCAATTYYGGLYTREFDYWGQGTQVTVSS	low polyreactivity
QVQLVESGGGLVQAGGSLRLSCAASGNIIDFYAMGWYRQAPGKERELVAAITSGGSTNFADSVKGRFTISRDNAKNTVYLQMNSLKPEDTAVYYCAARQWFSHRRWGGSRYDYWGQGTQVTVSS	high polyreactivity
QVQLVESGGGLVQAGGSLRLSCAASGRTFGWNAMGWYRQAPGKERELVAAISLRGTSTYYADSVKGRFTISRDNAKNTVYLQMNSLKPEDTAVYYCAARGRNGVNYWGQGTQVTVSS	high polyreactivity
